From patent US20210139545A1 (IBA, published 2021)

How the values were obtained:
[1] = molecular target: T1, cytochrome b562 with C-terminally fused Strep-tagII (E. coli); test: SPR Biacore
T1 construct: also called Cytb562-StrepII; Cytb562-StrepIII
Method: (§1) The resulting relative immobilized amounts are given in RU (arbitrary units) (column 3). To achieve the low density immobilization both muteins were applied applied at a concentration of 1 μg/ml and a flow rate of 10 μl/min. To achieve the immobilization at higher density, mutein m1-9 was used at a concentration of 20 μg/ml and mutein “1” was used at a concentration of 50 μg/ml. […] Prior to analysis, the fusion protein preparations were dialyzed against Buffer W (100 mM Tris-CI pH8, 150 mM NaCl, 1 mM EDTA), and checked via analytical size exclusion chromatography to be essentially free of aggregates (a content of max. 5% was accepted, in most cases it was below 1%) to ensure to measure the interaction of monovalent fusion proteins with immobilized streptavidin muteins only.

[2] = molecular target: T2, Green Fluorescent Protein with C-terminal Strep-tagII (Aequorea victoria (Water jellyfish) …, UniProt P42212 1-237 = GFP, limits assumed); test: SPR Biacore
T2 construct: also called GFP-StrepII; GFP-StrepIII
Method: as §1

[3] = molecular target: T3, E. coli alkaline phosphatase Strep-tag®II fusion protein (E. coli, UniProt P00634 22-471 = phosphatase); test: ELISA, second experiment, mutein coated, BAP-StrepII titrated
T3 construct: mature; also called BAP-StrepII; BAP-StrepIII

[4] = molecular target: T1, cytochrome b562 with C-terminally fused …; test: SPR Biacore T100, mutein immobilised at 170 RU, 1:1 global fit
Method: (§2) To achieve the immobilization at higher density, mutein m1-9 was used at a concentration of 20 μg/ml and mutein “1” was used at a concentration of 50 μg/ml. […] Prior to analysis, the fusion protein preparations were dialyzed against Buffer W (100 mM Tris-CI pH8, 150 mM NaCl, 1 mM EDTA), and checked via analytical size exclusion chromatography to be essentially free of aggregates (a content of max. 5% was accepted, in most cases it was below 1%) to ensure to measure the interaction of monovalent fusion proteins with immobilized streptavidin muteins only. […] Data were fitted using the kinetic global fit (Langmuir 1:1) and resulting on- and off-rates and deduced dissociation constants are shown in column 4, column 5 and column 6, respectively. BiaCore data were measured by Biaffin GmbH & Co KG, Kassel, Germany.

[5] = molecular target: T2, Green Fluorescent Protein with …; test: as above
Method: as §2

[6] = molecular target: T4, Green Fluorescent Protein with C-terminal di-tag3; test: as above
T4 construct: also called GFP-di-tag3
Method: as §2

[7] = molecular target: T5, cytochrome b562 with C-terminal di-tag3 (E. coli); test: as above
T5 construct: also called Cytb562-di-tag3
Method: as §2

[8] = molecular target: T1, cytochrome b562 with C-terminally fused …; test: SPR Biacore T100, mutein immobilised at 4350 RU, 1:1 global fit
Method: as §2

[9] = molecular target: T2, Green Fluorescent Protein with …; test: as above
Method: as §2

[10] = molecular target: T4, Green Fluorescent Protein with …; test: as above
Method: as §2

[11] = molecular target: T5, cytochrome b562 with C-terminal di-tag3; test: as above
Method: as §2

B1: mutein m1-9 (designed binder)
chain: EAGITGTWYNQLGSTFIVTAGADGALTGTYVTARGNAESRYVLTGRYDSAPATDGSGTALGWTVAWKNNYRNAHSATTWSGQYVGGAEARINTQWLLTSGTTEENAGYSTLVGHDTFTKVKPSAAS
Question: For B1, which “affinity increase relative to mutein “1”” value [1] is on record?
Answer: ~30 fold

Question: And the “affinity increase relative to mutein “1”” value [2]?
Answer: ~10 fold

Question: What about the “(Δ(A405-A595)/Δt)max” value [3] of the same binder?
Answer: 1700 mOD

Question: What about the Kd [3] of the same binder?
Answer: 25 nM

Question: And the Kd [4]?
Answer: 586 nM

Question: And the koff [4]?
Answer: 0.041 s⁻¹

Question: What about the kon [4] of the same binder?
Answer: 70000 M⁻¹ s⁻¹

Question: What about the Kd [5] of the same binder?
Answer: 32 nM

Question: And the koff [5]?
Answer: 0.0047 s⁻¹

Question: And the kon [5]?
Answer: 150000 M⁻¹ s⁻¹

Question: What about the Kd [6] of the same binder?
Answer: 0.053 nM

Question: And the koff [6]?
Answer: 1.5e-05 s⁻¹

Question: What about the kon [6] of the same binder?
Answer: 280000 M⁻¹ s⁻¹

Question: What about the Kd [7] of the same binder?
Answer: 0.014 nM

Question: What about the koff [7] of the same binder?
Answer: 1.5e-05 s⁻¹

Question: And the kon [7]?
Answer: 1e+06 M⁻¹ s⁻¹

Question: What about the Kd [8] of the same binder?
Answer: 485 nM

Question: What about the koff [8] of the same binder?
Answer: 0.025 s⁻¹

Question: What about the kon [8] of the same binder?
Answer: 52000 M⁻¹ s⁻¹

Question: And the Kd [9]?
Answer: 23 nM

Question: And the koff [9]?
Answer: 0.0038 s⁻¹

Question: What about the kon [9] of the same binder?
Answer: 170000 M⁻¹ s⁻¹

Question: And the Kd [10]?
Answer: 0.079 nM

Question: And the koff [10]?
Answer: 1.7e-05 s⁻¹

Question: And the kon [10]?
Answer: 220000 M⁻¹ s⁻¹

Question: What about the Kd [11] of the same binder?
Answer: 0.043 nM

Question: What about the koff [11] of the same binder?
Answer: 1.9e-05 s⁻¹

Question: And the kon [11]?
Answer: 440000 M⁻¹ s⁻¹
